Consider 2 substances from patent US20150258217A1, “Methods of Synthesizing and Using Peg-Like Fluorochromes” (THE GENERAL HOSPITAL CORPORATION, priority 2012, published 2015).

For series [1] the following is noted: mouse, in vivo. How it is done:
At two hours post injection, agent is in the blood and interstitium. By 24 hours post injection, tumors are becoming apparent as agent is being cleared. At 48 hours, labeling is highly tumor selective. […] By surface fluorescence, as with SPECT, labeling is highly tumor selective at 48 hours. Biodistribution as organ radioactivity concentrations FIG. 26(c) and total organ radioactivity FIG. 26(d) were obtained by dissection and ^111In counting at 24 hours and 48 hours post injection. Even at 48 hours post injection some 7.5% of injected dose is in the blood, with less than 5% in liver, even though the diameter of PN(783)10.0 exceeds that of albumin (6.7 nm). Data are means and standard deviations. […] By 72 hours, some 17% of injected dose was retained, approximately half of which was still in the blood based on FIG. 26d.

For a further series, the system named is HT-29 tumor. Type of series: in vivo, mouse. The text has this:
A Kodak FX multispectral imaging system was used (Carestream Molecular Imaging, Rochester, N.Y.). Excitation at multiple wavelengths (620, 650, 690, 710, 720, 730, 750 and 760 nm) with the emission at 830 nm was setup for IR-783 spectrum; Excitation at multiple wavelengths (420, 440, 460, 480, 510, 520, 530, and 540 nm) with the emission at 600 nm was setup for Cy3 spectrum; Excitation at multiple wavelengths (450, 470, 510, 520, 530, 540, 550, 570, and 590 nm) with the emission at 700 nm was setup for mCherry; with manufacturer's software to separate (unmix) the IR-783 spectrum, Cy3 spectrum, or mCherry spectrum from skin autofluorescence and chlorophyll fluorescence from food. X-ray images were taken after fluorescence images. Animals were anesthetized with 2% isoflurane with O2 flow (2 I/min) during imaging.
Female nude mice (25-30 g; 6-8 weeks old; nu/nu) were anesthetized with 2% isoflurane/O2. HT-29 or mCherry-HT-29 cells were detached, pelleted and 200 μl of cell suspension containing 10^6 cells in Matrigel (BD Bioscience) was injected subcutaneously into right and left shoulders. Tumors were allowed to grow 5-7 days before experiments.
The imaging was performed by Triumph II multimodality imaging system (Gamma Medica Ideas, LLC) comprising XSPECT with four CZT (Cadmium Zink Telluride) detectors and X-O CT with CMOS detector. SPECT data of the ^111In-labeled compound was acquired for 60 minutes using 5-pinhole collimators and processed with 3D-OSEM algorithm using 4 subsets and 5 iterations. 3-dimensional CT data was processed with modified Feldkamp software. […] Animals were under isoflurane anesthesia (1.5%) with O2 flow (1.5 l/min) and kept warm during the imaging with a heated animal bed.
150 μl of ^111In-labeled PN(783)10 (400 μCi, ˜2 nmole) were injected to tumor-bearing animals by tail vein (IV). 24 hours or 48 hours later, animals were sacrificed, and tumors, blood, liver, spleen, stomach, kidneys, small intestine, lung, heart, tail, fat, and muscle, were collected. Radioactivity was measured with Perkin Elmer, Wizard2 2480 gamma counter.

Series [2] is described as follows: Quantum yield determination. Format: physicochemical. The conditions noted are these: Table 4, DMR probes. How it is done: Quantum yields were determined as described in Demas et al., “Measurement of photoluminescence quantum yields. Review”, Journal of Physical Chemistry 75, 991-1024 (1971), and Shao et al., “Facile Synthesis of Monofunctional Pentamethine Carbocyanine Fluorophores. Dyes and pigments: an international journal 90, 119-122 (2011). For IR-783 a reference quantum yield of 0.043 was used (see Li et al., “Synthesis and characterization of glucosamine-bound near-infrared probes for optical imaging”, Organic letters 8, 3623-3626, 2006); for fluorescein a reference quantum yield was […] (see Sjoback et al., “Absorption and florescence properties of fluorescein”, Spectrohimica Acta Part A 51, L7-L21, 1995). For Cy3 a reference quantum yield of 0.31 was used (Luminprobe Inc). For PN(783)'s, excitation was at 730 nm and emission spectra were recorded from 765 nm to 870 nm in PBS and maximum emission used. For PN(545)'s, excitation was at 515 nm and emission spectra were recorded from 538 nm to 700 nm in PBS and maximum emission used. For PN(497)'s, excitation was at 450 nm and emission spectra were recorded from 475 nm to 620 nm in PBS and maximum emission used. Absorbance of each probe was adjusted less than 0.1. Measurements were made in triplicate and are expressed as mean±SD.

Series [3] in a line: Probe volume determination by FPLC (Superdex 75, globular protein standards). Type of series: physicochemical. How it is done:
Size (volume) was determined by FPLC using an ÄKTA Purifier 10 and Superdex™ 75 10/300 GL column (GE Healthcare Lifesciences) with a running buffer of 0.05 M sodium phosphate, 0.15 M NaCl (0.1% Tween, pH 7.2) and flow rate of 0.5 ml/min. The protein standards (Gel Filtration Calibration Kit LMW, code no. 28-4038-41, GE Healthcare) (0.3 mg/ml, mixture of Aprotinin, Ribonuclease A, Ovalbumin, and Conalbumin) and Blue Dextran 2000 were used. To obtain volumes, Mr (apparent molecular weight based on size exclusion retention) was plotted versus Kav. Kav=(Ve−Vo)/[…], Vt=total volume, Ve=elution volume, Vo=void volume.

For series [4], the system named is GFP expressing BT-20 breast carcinoma xenograft. Briefly: Tumor surface fluorescence after peritumoral (DMR) or IV injection. Format: in vivo, mouse. How it is done: Day 1, BT-20 cells were planted into 24-well plate at 750,000 cells/well in culture medium (EMEM with 10% FBS). Day 2, the old culture medium was replaced with new culture medium containing lenti-virus (1×10^8 particles/mL) and protamine sulphate (American Pharmaceutical Partners, Los Angelus, Calif.; 10 mg/mL; 1:500 of total volume of medium). Day 3, after 16 hours of transfection, medium was changed to the culture medium (EMEM with 10% FBS). 8 hours later, green cells could be seen via fluorescence microscope.
All animal experiments were approved by the Institutional Review Committee of Massachusetts General Hospital. Female nude mice (25-30 g; 6-8 weeks old; nu/nu; Cox 7, Massachusetts General Hospital, Boston, Mass.) were anesthetized with isoflurane/O2. Tumor cell implantation was performed both sides around the shoulder. 200 μl of cell suspension containing 10^6 cells in Matrigel (BD) was injected subcutaneously. Tumor cells were inoculated for 7 to 10 days.
The diffusion and molecular retention required of the DMR technique with a tumor bearing model were investigated. We peritumorally injected the RGD probe into an animal bearing two GFP expressing BT-20 breast carcinomas and monitored tumor GFP fluorescence and probe fluorescence as a function of time after injection. The non-integrin binding RAD probe was injected into a second animal also bearing two tumors. Overlaying purple probe fluorescence over green GFP yields white. […] Tumor surface fluorescence from both probes was quantified by the use of solution standards.
In FIG. 8a), two animals bearing two tumors were PT injected with the RGD probe or RAD probe as indicated and surface fluorescence images were obtained. […] In FIG. 8b), quantitation of tumor surface fluorescence after injections of the RGD or RAD probes as above. Surface fluorescence was quantified through the use of standard solutions.
To compare the DMR and intravenous (IV) methods, surface fluorescence images of tumor GFP and RGD probe fluorescence were obtained with skin removed, and overlays from the two signals obtained. With both DMR and IV administration, probe fluorescence extended beyond tumor GFP margins to a stromal area beyond the tumor. However, tumor fluorescence was far higher with DMR than IV injection, even though dose was far lower (50 pmoles/mouse by DMR versus 2000 pmoles/mouse by IV).
In FIG. 9a), skin covering GFP-BT-20 tumor was removed. Shown are visible GFP fluorescence, probe (CyAL5.5) fluorescence, and the overlay of GFP and probe fluorescence plus an X-ray image. Green GFP plus purple CyAL5.5 fluorescence yielded a white overlaid image. In FIG. 9b), with DMR or IV, probe fluorescence included a stromal zone of integrin binding surrounding the tumor was seen. […]

On to “(^111In-DOTA)Lys(PEG30 kDa)-Cys(IR-783) [^111In-PN(783)10.0]”, for which, in series [1], the “Whole body radioactivity half-life” value is 7.8 h; the “Whole body radioactivity, % of injected dose” value stood at 13.75±0.74%; the “^111In-PN(783)10 elimination half-life” value is 7.8 h. The substance further showed a tumor concentration in the series on HT-29 tumor (HT29 tumor, 48 hours post injection, IV) of 7.28±0.93 % ID/gm. In the series on HT-29 tumor (mouse, in vivo), the “injected dose in the kidney” value is 0.44±0.02% and the “injected dose in the liver” value is reported as 4.71±0.38%.
Regarding “DOTA-Lys(CyAL5.5)-Lys(5 kDa PEG)- βAla -Lys(sPEG-RGD) [Compound 7a]”, the “Quantum Yield” value in series [2] is on record as 0.20. In series [3] (FPLC, globular protein equivalent volume), the “Equiv. Vol.” value was 25 kDa. Also, in series [3] (Table 4, DMR probes), the “Molecular Volume” value is reported as 20-30 kDa. Further, the “tumor retention of probe fluorescence after peritumoral injection” value in series [4] (BT-20 tumors, 24 hours post injection) is listed as “retained by the tumor”. The Tumor fluorescence in series [4] (DMR, 50 pmoles/mouse) is 15.0 au; in series [4] (IV, 2000 pmoles/mouse), 1.5 au.
